This assay concerns the target PHF8 (Homo sapiens, UniProt Q9UPP1). Kind of assay: PHF8 demethylation time course. The format is biochemical. The following applies: equimolar ratio added.

Chain of PHF8 (Q9UPP1 37-483): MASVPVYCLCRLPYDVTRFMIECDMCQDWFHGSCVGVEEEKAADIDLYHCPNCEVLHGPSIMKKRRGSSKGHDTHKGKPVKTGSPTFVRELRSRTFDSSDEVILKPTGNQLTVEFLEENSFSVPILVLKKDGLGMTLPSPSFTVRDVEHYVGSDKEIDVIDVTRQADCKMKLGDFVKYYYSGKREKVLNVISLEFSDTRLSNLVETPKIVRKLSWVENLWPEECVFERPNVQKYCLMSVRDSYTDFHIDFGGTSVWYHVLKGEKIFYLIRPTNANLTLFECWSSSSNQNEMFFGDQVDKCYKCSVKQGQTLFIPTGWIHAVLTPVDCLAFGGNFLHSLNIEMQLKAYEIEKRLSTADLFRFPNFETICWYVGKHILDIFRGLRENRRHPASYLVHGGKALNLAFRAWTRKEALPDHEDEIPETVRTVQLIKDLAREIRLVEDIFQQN

Regarding “H3_1–12K4me3: H3K4me3 modification in a short H3_1–12 peptide”, the “effect of added peptide in trans on demethylation of H3_1–24K9me2 by PHF8” value is recorded as “inhibitory effect”.
As for “H3_1–21K4me3: H3K4me3 modification in a long H3_1–21 peptide”, the “effect of added peptide in trans on demethylation of H3_1–24K9me2 by PHF8” value is recorded as “inhibitory effect”.

Values taken from article PMC2849977 (Nature structural & molecular biology, 2009).
